Data reported in patent EP1298214A2, “Plant thioesterases” (Calgene LLC, priority 1990, dated 1991).

Target: T1, Bay C12-preferring acyl-ACP thioesterase (Umbellularia californica, UniProt Q41635)
T1 sequence (Q41635 84-382): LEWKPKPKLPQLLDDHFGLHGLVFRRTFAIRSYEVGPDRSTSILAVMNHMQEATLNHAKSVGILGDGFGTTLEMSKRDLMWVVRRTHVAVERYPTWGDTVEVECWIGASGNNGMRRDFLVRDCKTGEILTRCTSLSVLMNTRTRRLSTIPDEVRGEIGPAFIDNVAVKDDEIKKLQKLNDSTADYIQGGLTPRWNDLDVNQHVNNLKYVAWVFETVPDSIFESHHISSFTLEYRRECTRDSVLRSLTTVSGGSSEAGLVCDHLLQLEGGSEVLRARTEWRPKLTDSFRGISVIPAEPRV
Assay: Substrate hydrolysis (ACP versus CoA) by peak gradient-eluted fraction of the ACP column
Format: biochemical
Parameters: The cotyledons from such seeds are dissected from the other seed parts and stored frozen at -70°; This comprises the source tissue for enzyme extraction; from tissue; host or cells: immature seed cotyledons of Umbellularia californica
Conditions: cpm of ether-extractable product
Method: To assay for C12 thioesterase activity the following mixture is incubated at 30° for 30 min: "buffer" comprising 7mM KH2PO4-KOH pH 8, 20% v/v glycerol, 1mM dithiothreitol (DTT), 0.1% v/v Triton X100; sample to be tested for activity in the same or similar buffer as the "extraction buffer" described in Example 2; and 5µl of ^14C-radiolabeled lauroyl-ACP substrate for a total volume of 100µl and final lauroyl-ACP concentration of 0.5µM. Lauroyl-ACP substrate is prepared according to the method of Rock et al (Methods in Enzymology (1981) 72:397-403), using ACP prepared from Escherichia coli by the method of Rock and Cronan (Methods in Enzymology (1981) 71:341-351). The laurate is radiolabeled in the carboxylate group at a specific radioactivity of 50-60µCi/µmol.
The reaction is stopped by adding 0.5ml cold (0°) 10% v/v acetic acid. […] After settling for a few minutes the upper ether layer is transferred to 5ml scintillation fluid for determination of radioactivity by liquid scintillation spectrometry. Additional ether extractions may be performed to recover remaining traces of the reaction product for more accurate quantitation of the enzyme activity if desired. The amount of ether-extracted radioactivity is a direct measure of C12-preferring acyl-ACP thioesterase activity, provided the amount of enzyme is not sufficient to hydrolyze more than about 25% of the substrate. […]

lauroyl-ACP [12:0-ACP]
Activity on Substrate: 2772 cpm
